Test results as given in patent US10385380B2, “Personalized protease assay to measure protease activity in neoplasms” (The Regents of the University of California, priority 2014, dated 2019).
Entries after “also recorded” stand apart in the source; their conditions may differ. Like-named read-outs stand apart in the source and are kept apart here. One block for each substance: values may come before it. Where no end group is shown, it is not given here. [ ]: non-standard residue; d: D form. hPhe = N[C@@H](CCc1ccccc1)C(=O)O

What was measured:
multiple MMPs = assay: Specificity of first generation cleavable site among MMPs; assay type: biochemical
Description: In contrast to mRNA expression or copy number detection methods, RACPPs detect in vivo protease activity, thus bypassing the complicated interplay between transcription/translation, pro- and active forms of the enzymes, as well as the presence of inhibitors/activators etc. It was shown that RACPP uptake correlates with tumor burden^15 and with tumor characteristics corresponding to poor survival^18.
RACPPs are capable of monitoring protease activity in real time living animal models of cancer. […] To tease out the involvement of specific individual proteases involved in the various stages of cancer growth, invasion and metastasis, it was sought to identify RACPP cleavable sites that are specific for individual select proteases.

MMP-2 [1] = target: T1, MMP-2 (Homo sapiens, UniProt P08253); assay: Cell uptake after cleavage of linker by MMP-2; assay type: cell-based; settings: cleaved by MMP-2
T1 sequence (P08253 110-660): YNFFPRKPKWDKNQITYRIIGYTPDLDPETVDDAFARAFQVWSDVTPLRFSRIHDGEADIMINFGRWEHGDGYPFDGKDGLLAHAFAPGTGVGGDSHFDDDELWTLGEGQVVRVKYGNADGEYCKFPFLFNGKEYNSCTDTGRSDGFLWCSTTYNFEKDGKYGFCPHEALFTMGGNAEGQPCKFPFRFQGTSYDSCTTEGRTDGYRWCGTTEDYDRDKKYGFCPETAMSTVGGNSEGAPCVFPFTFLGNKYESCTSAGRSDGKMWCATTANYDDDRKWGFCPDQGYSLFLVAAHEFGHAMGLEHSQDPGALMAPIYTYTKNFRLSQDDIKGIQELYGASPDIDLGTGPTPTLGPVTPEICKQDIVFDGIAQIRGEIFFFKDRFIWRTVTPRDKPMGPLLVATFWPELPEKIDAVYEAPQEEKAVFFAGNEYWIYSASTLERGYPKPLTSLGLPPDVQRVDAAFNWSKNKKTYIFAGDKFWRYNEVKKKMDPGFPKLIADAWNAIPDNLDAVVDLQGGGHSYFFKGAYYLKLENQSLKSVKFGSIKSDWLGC
Description: For example, a linker X that includes the amino-acid sequence PLGLAG (SEQ ID NO: 1) may be cleaved by the metalloproteinase enzyme MMP-2 (a major MMP in cancer and inflammation). Cleavage of such a linker X occurs between the central G and L residues, causing cell uptake to increase by 10 to 20-fold. A great deal is known about the substrate preferences of different MMPs, so that linkers X may be designed that are able to bias X to be preferentially sensitive to particular subclasses of MMPs, or to individual members of the large MMP family of proteinases. For example, in some embodiments, linkers X designed to be cleaved by membrane-anchored MMPs are particularly employed because their activity remains localized to the outer surface of the expressing cell. In alternative embodiments, linkers X designed to be cleaved by a soluble secreted MMP are employed where diffusion of cargo C away from the exact location of cleavage may be desired, thereby increasing the spatial distribution of the cargo. Other linkers X cleavable by other MMPs are discussed throughout the application.

MMP-14 = MMP-14 (Homo sapiens, UniProt P50281); assay: Cleavage of ACPP substrates by purified MMP-14; assay type: biochemical; settings: versus MMP-2 and MMP-9
Procedure: (§1) FIG. 7 describes selectivity for substrates for MMP2, 9 and 14 (1 uM peptide 20 nM enzyme). A) MT1 selective RSHPHfeTLY (SEQ ID NO: 19).
(§2) FIG. 8A, FIG. 8B and FIG. 8C describe selectivity for substrate cut with MMP-2, MMP9 and MMP-14.
(§3) To generate new substrates for MMPs, amino acids were substituted at key position at and near the cleavage site based on the following rule derived by recent work by Ratnikov et al^26 that the amino acid at a certain position must improve cleavage by the specific enzyme and reduce cleavage by other related enzymes. For increased specificity, an amino acid should be red for the enzyme of interest compared green for the other enzymes at the same substitution position (FIG. 36A). These substrates will be tested by treating 5 μM peptide with 20 nM of each enzyme for 2 hours and analyse by gel electrophoresis.
(§4) FAM/Cy5 ratiometric versions of RACPPs with these sequences were made and tested to confirm selectivity. The preferred form Cy5/Cy7 ratiometric versions for in vivo testing with a pegylated carrier to help with solubility is currently being synthesized. For MMP 11 a similar approach will be adopted in finding selective substrates.^26.

MT2-MMP = MT2-MMP (Homo sapiens, UniProt P51511); assay: Cleavage of RS-(Cit)-G-(homoF)-YLY derivatives by MT2-MMP; assay type: biochemical
MT2-MMP, sequence (P51511 132-669, species assumed): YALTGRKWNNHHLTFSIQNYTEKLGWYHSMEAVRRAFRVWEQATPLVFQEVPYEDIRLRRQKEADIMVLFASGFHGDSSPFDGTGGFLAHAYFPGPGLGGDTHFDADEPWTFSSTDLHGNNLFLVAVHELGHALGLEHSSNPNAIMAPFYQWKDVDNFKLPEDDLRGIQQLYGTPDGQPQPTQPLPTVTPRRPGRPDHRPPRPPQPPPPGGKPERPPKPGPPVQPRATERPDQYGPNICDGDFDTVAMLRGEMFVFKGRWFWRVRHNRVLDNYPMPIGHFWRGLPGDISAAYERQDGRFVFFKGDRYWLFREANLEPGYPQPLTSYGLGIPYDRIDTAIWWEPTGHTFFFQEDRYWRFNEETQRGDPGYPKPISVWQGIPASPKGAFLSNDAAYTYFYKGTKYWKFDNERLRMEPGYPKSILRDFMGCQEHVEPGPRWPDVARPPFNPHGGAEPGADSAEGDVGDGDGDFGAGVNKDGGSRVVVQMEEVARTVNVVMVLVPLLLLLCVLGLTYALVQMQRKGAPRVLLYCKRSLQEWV

MMP9 = MMP9 (Homo sapiens, UniProt P14780); assay: Cleavage of ACPP substrates by purified MMP-9; assay type: biochemical; settings: versus MMP-2 and MMP-14
MMP9, sequence (P14780 94-707): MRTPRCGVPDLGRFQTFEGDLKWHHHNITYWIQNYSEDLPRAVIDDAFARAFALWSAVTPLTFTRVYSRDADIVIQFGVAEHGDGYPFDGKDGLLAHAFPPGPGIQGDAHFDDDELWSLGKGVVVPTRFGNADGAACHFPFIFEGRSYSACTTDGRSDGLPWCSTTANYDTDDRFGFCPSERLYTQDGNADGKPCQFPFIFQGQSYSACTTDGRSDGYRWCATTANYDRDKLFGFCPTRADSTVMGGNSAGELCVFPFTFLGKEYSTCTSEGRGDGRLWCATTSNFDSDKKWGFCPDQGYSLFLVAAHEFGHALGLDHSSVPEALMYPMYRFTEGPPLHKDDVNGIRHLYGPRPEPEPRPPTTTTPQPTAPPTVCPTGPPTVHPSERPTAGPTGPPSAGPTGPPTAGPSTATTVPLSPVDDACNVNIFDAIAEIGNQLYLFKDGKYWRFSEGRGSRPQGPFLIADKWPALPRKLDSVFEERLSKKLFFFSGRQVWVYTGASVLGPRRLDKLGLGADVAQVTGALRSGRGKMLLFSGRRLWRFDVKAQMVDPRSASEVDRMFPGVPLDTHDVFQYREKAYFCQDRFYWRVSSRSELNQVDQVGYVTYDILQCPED
Procedure: as §1, §2, §3, §4

MMP-2 [2] = target: T1, MMP-2; assay: Cleavage of ACPP substrates by purified MMP-2; assay type: biochemical; settings: versus MMP-9 and MMP-14
Procedure: as §1, §2, §3, §4

[3] = target: urokinase plasminogen activator (uPA) (Homo sapiens, UniProt P00749); assay: Screen of protease substrates for cleavage by uPA; assay type: biochemical; settings: substrate in the context of an ACPP
Procedure: (§5) To generate novel RACPP species that are selective for uPA, a set of protease substrates were screened that were diverse and likely cleaved by serine protease in that they contain either a lysine or arginine residue flanked by diverse amino acids. […] Several other substrates that were reported to be cleaved by uPA were also tested but were not cleaved possible because the constrained structure of the substrate within the context of an ACPP.
To generate novel RACPP species that are specific for uPA, a set of protease substrates were screened that were diverse and likely cleaved by serine protease in that they contain either a lysine or arginine residue flanked by diverse amino acids.

tPA = tPA (Homo sapiens, UniProt P00750); assay: Screen of protease substrates for cleavage by tPA; assay type: biochemical; settings: compared with uPA
tPA, sequence (P00750 36-562, species assumed): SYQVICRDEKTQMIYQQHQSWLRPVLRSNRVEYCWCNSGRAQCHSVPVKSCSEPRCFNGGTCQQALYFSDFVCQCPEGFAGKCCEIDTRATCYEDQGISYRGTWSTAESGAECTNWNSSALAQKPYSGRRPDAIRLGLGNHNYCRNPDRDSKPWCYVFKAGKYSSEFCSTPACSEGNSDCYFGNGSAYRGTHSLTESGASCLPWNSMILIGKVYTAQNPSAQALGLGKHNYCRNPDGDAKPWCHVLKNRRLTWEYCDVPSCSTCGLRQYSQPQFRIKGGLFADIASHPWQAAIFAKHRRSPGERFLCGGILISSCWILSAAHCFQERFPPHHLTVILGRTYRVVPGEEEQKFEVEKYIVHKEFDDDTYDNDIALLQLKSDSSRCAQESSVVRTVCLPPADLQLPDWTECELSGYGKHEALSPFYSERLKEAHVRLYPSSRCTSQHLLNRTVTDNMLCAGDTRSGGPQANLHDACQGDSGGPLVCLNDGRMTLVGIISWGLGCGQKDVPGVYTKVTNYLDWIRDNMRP
Procedure: as §5

Substance: PLGC(Me)AG
cleavage by multiple MMPs (lack of specificity) (multiple MMPs): cut by multiple MMPs
cleavage by multiple MMPs (lack of specificity) (multiple MMPs; listed as PLGC(me)AG): cleaved by multiple proteases

increase of cell uptake after cleavage between the central G and L residues (MMP-2 [1]): 10 to 20 fold
Substance: PLGLAG (cleavable linker)

cleavage by / selectivity for MMP-14 (MT1-MMP) (MMP-14): MMP14 selective
Substance: RS-(Cit)-G-(homoF)-YLY

cleavage by MT2-MMP (MT2-MMP): significant cleavage
Substance: RS-Q-G-(homoF)-YLY (RSQG[hPhe]YLY)

cleavage by / selectivity for MMP-14 (MT1-MMP) (MMP-14): highly selective and efficiently cleaved
cleavage by / selectivity for MMP-14 (MT1-MMP) (MMP-14; listed as RSHG(Hfe)FLY): selective
Substance: RSHG-(homoF)-FLY (RSHG[hPhe]FLY)

cleavage by / selectivity for MMP-14 (MT1-MMP) (MMP-14): MMP14 selective
cleavage by / selectivity for MMP-14 (MT1-MMP) (MMP-14; listed as RSHPHfeTLY): MT1 selective
Substance: RSHP[hPhe]TLY

cleavage by / selectivity for MMP9 (MMP9): MMP9 selective
Substance: SNPYG-Y (SNPYGY; cleavable linker)

cleavage by / selectivity for MMP9 (MMP9): MMP9 selective
cleavage by / selectivity for MMP9 (MMP9; listed as SNPYKY): selective
Substance: SNPYK-Y (SNPYKY; cleavable linker)

cleavage by / selectivity for MMP-2 (MMP-2 [2]): selectively cleaved
Substance: TIAH/LH

cleavage by / selectivity for MMP-2 (MMP-2 [2]): MMP2 selective
Substance: TIAHLA (cleavable linker)

cleavage by / selectivity for MMP-2 (MMP-2 [2]): MMP-2 selective
Substance: TLSE-LH (TLSELH; cleavable linker)

cleavage by tPA (tPA): to a lesser extent
Substance: YGRAAA (cleavable linker)
cleavage by uPA [3]: efficiently cleaved; also recorded: increase in Cy5/Cy7 signal ratio
